From US20030175703, “RNA aptamers and methods for identifying the same” (published 2003)
Read-outs that look alike come from different tables or passages of the source.

Tests used:
[1] = biological target: T1, angiopoietin-2 (Ang2) (UniProt O15123 O15123:19-496)
[2] = biological target: T2, thrombin (F2) (human, UniProt P00734;P00734 P00734:328-363,P00734:364-622); test: filter; ±0.7
[3] = biological target: T2, thrombin (F2)
[4] = biological target: T3, coagulation factor IXa (FIXa) (UniProt P00740;P00740 P00740:47-191,P00740:227-461); test: filter; ±0.2; 500-700 pM in Table 1
[5] = biological target: T4, coagulation factor IX (FIX) (UniProt P00740 P00740:47-461); test: ±0.7
[6] = biological target: T1, angiopoietin-2 (Ang2); test: FIG. 27 gives <10 nM; about 1 nM in competition (FIG. 29)
[7] = biological target: T3, coagulation factor IXa (FIXa); test: filter; double-filter nitrocellulose
[8] = biological target: coagulation factor VIIa (FVIIa) (UniProt P08709;P08709 P08709:61-212,P08709:213-466); test: competition; physiologic conditions
[9] = biological target: T3, coagulation factor IXa (FIXa); test: ±0.05; p287 gives about 1 to 3 nM; details: stem-loop
[10] = biological target: T4, coagulation factor IX (FIX); test: ±0.8; p287 gives about 6 to 10 nM; details: stem-loop
[11] = biological target: T3, coagulation factor IXa (FIXa); test: competition; cholesterol has modest effect on affinity

B1: Ang2 aptamer 9-5 (ssRNA)
RNA: GGGAGGACGAUGCGGCGAUCUUUUCGUCAACCGCACGUUGAACUCGGCUCGGCACCAGACGACUCGCUGAGGAUCCGAGA
modifications: 2'-F
[1]
  Kd: ~5 nM

B2: Ang2 aptamer 11-3 (ssRNA)
RNA: GGGAGGACGAUGCGGUUAACCAUCAGCUCAUGGCCCCUGCCCUCUCAAGGACCACCAGACGACUCGCUGAGGAUCCGAGA
modifications: 2'-F
[1]
  Kd: ~10 nM

B3: TOG 25 (TOGGLE-25) (ssRNA)
RNA: GGGAGAGAGGAAGAGGGAUGGGGAACAAAGCUGAAGUACUUACCCAAGAUCAUCCCGAACGACAUAACCCAGAGGUCGAUAGUACUGGAUCCCCCC
[2]
  Kd: 2.8 nM

## GGGAACAAAGCUGAAGAACUUACCC (ssRNA) [TOG 25 short loop U2]
[3]
  Kd: ~1 nM

B4: RNA 9.3 (ssRNA)
RNA: GGGAGAGAGGAAGAGGGAUGGGGACUAUACCGCGUAAUGCUGCCUCCCCAUUCCGGAACGCUCAUAACCCAGAGGUCGAUAGUACUGGAUCCCCCC
modifications: 2'-F pyrimidines
[4]
  Kd: 0.65 nM
[5]
  Kd: 3.96 nM

## GGGAACAAAGCUGAAGUACUUAGGG (ssRNA) [TOG 25 short no stem]
[3]
  Kd: ~1000 nM

B5: ANG11-1 (ssRNA)
RNA: GGGAGGACGAUGCGGACUAGCCUCAUCAGCUCAUGUGCCCCUCCGCCUGGAUCACCAGACGACUCGCUGAGGAUCCGAGA
modifications: 2'-F
[6]
  Kd: ~5 nM

## GGGAACAAAGCAGAAGUACUUACCC (ssRNA) [TOG 25 short loop U1]
[3]
  Kd: ~250 nM

## GGGAACAAAGCUGAAGUACUUACCC (ssRNA) [TOG 25 short (TOGGLE-25t)]
[3]
  Kd: ~1 nM

B6: 9.28 (ssRNA)
RNA: GGGAGAGAGGAAGAGGGAUGGGCGCCAUACGCACAUUGCUGCAUCGCCUUCCCGUAAGAACCAUAACCCAGAGGUCGAUAGUACUGGAUCCCCCC
modifications: 2'-F pyrimidines
[7]
  Kd: 0.592 nM

B7: 10.15 (ssRNA)
RNA: GGGAGAGAGGAAGAGGGAUGGGAAGCUCCAUCCAAGCGACGACACGCUCGUCCCGAAAAGAAUCAUAACCCAGAGGUCGAU
modifications: 2'-F pyrimidines
[8]
  Kd: ~6.33 nM

## AUGGGGACUAUACCGCGUAAUGCUGCCUCCCCAU (ssRNA) [9.3t]
[9]
  Kd: 0.58 nM
[10]
  Kd: 4.7 nM

## AUGGGGACUAUACCGCGUAAUGCUGCCUCCCCAU (ssRNA, 5' cholesterol) [9.3t-C]
[11]
  binding result: binds
